# Assay results reported in publication PMC5425828.
# Biological target: T1, Sco1678 (GntR-His) (Streptomyces coelicolor M145) (UniProt Q9AD89)
# T1 sequence: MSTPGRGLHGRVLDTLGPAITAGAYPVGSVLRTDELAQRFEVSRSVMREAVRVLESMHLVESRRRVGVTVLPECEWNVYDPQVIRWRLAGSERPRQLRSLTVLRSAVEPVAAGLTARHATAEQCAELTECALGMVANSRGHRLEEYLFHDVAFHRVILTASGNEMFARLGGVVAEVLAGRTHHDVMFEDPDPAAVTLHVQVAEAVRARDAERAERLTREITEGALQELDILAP
# Experiment: EMSA
# Conditions: 20 mM Tris/HCl pH 7.5, 50 mM KCl, 10 mM MgCl2, 5% (v/v) glycerol, 0.5 mM EDTA, 25 min at 25 C; 0.2 pmol Cy5 probe, 0.93-4.18 pmol protein; 8% native PAGE, 1x …
row,Sequence,binding
1,AGCCAGTGGCGATAAGGTTGCTGCATCGCACTCTCGCTGTCTGCTGTCTTCGTCGACACCTGATGTCGACGCAACTGAAACTCATTAGTACGACAACTTCAAGAGTCTGTGACGTATAAGTCTGACTTTTTGTTCCCGTGACATGCCCCGTACGCTGAGTGCATGAGCACACCGGGCCGGGGGCTGCACGGCCGCGTACTGGACACCCTCGGCCCCGCGATCACAGCTTATCGCCACTGGCT (double strand) [gntR-gntK intergeneric region],binds
2,AGCCAGTGGCGATAAGCGTCGTACTCCTGTTCCTGCCGGCCGGTGCGTGGTGCGGCTATATGACCAGGGACAACAGCAGGACCAGGGCACCGGCGACCACCGAGATGATCGTCTCCATGACGGACCAGGTCTTGATGGTCTGCCCCACGTTCAGCCCGAAGTACTCCTTCACCAGCCAGCTTATCGCCACTGGCT (double strand) [gntZ promoter region],no binding
